For this series, the target named is T1, ADP-1 polypeptide (Tat RNA-binding region) (HIV-1, UniProt P04608 37-72).
T1 chain: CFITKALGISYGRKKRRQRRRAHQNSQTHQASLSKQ
Description: EMSA; no helicate; EMSA: 50 mM Tris-HCl pH 8.0, 50 mM KCl, 100 mM DTT, 0.05% Triton X-100, 10 min on ice; 15% PAA gel, 0.5x TB, 5 C. To be noted: label: 5'-32P; hairpin with 3-nt UCU bulge. (In general: A gel shift assay detects complexes by their altered migration in electrophoresis.)

B1: TAR RNA (structured_RNA)
RNA: GGCCAGAUCUGAGCCUGGGAGCUCUCUGGCC
In the case of B1, the binding result is listed as “binds”.

The values above are taken from publication PMC4940744, “Iron(II) supramolecular helicates interfere with the HIV-1 Tat–TAR RNA interaction critical for viral replication”.
